Laboratory results: FireProtDB (doi:10.1111/j.1432-1033.1994.tb18664.x)

B1: Ribonuclease HI, P0A7Y4 (parent)
chain: MLKQVEIFTDGSCLGNPGPGGYGAILRYRGREKTFSAGYTRTTNNRMELMAAIVALEALKEHCEVILSTDSQYVRQGITQWIHNWKKRGWKTADKKPVKNVDLWQRLDAALGQHQIKWEWVKGHAGHPENERCDELARAAAMNPTLEDTGYQVEV

Variants of: B1
Conditions: Escherichia coli (strain K12), Thermal, CD, NaCl 0.1 M, reversible: yes, structure 2RN2, whole UniProt chain shown
[1] = pH 5.5, 53.1 °C, Sodium acetate 20 mM

Variant | ddG of mutation (higher = less stable) (pH 3, 50 °C, glycine-HCl 10 mM) [kcal/mol] | Tm (pH 3, glycine-HCl 10 mM) [°C] | change of melting temperature, mutant - wild type (higher = more stable) (pH 3, glycine-HCl 10 mM) [°C] | unfolding enthalpy (van 't Hoff) (pH 3, glycine-HCl 10 mM) [kcal/mol] | ddG of mutation (higher = less stable) [1] [kcal/mol] | Tm (pH 5.5, Sodium acetate 20 mM) [°C] | change of melting temperature, mutant - wild type (higher = more stable) (pH 5.5, Sodium acetate 20 mM) [°C] | unfolding enthalpy (van 't Hoff) (pH 5.5, Sodium acetate 20 mM) [kcal/mol]
D134Q | -0.48 | 51.6 | 1.6 | 114 | -1.32 | 57.9 | 4.8 | 96.9
D134E | -0.72 | 52.4 | 2.4 | 108 | -0.86 | 56.2 | 3.1 | 102
D134L | -1.15 | 53.8 | 3.8 | 118 | -1.51 | 58.6 | 5.5 | 96.4
D134H | -0.53 | 51.7 | 1.7 | 106 | -1.94 | – | – | –
D134I | -0.69 | 52.3 | 2.3 | 105 | -1.27 | 57.7 | 4.6 | 101
D134S | -0.26 | 50.9 | 0.9 | 106 | -1.08 | – | – | –
D134V | -0.31 | 51.1 | 1.1 | 107 | -1.12 | 57.2 | 4.1 | 99
D134A | -0.89 | – | – | – | -1.51 | 58.6 | 5.5 | 118
D134N | 0.1 | 49.7 | -0.3 | 110 | – | 56.3 | 3.2 | 96.9
D134T | -0.12 | 50.4 | 0.4 | 107 | – | 57 | 3.9 | 90.2
